These are literature values, as cited in paper PMC8895726.

As usually defined, the Kd is the constant that tells how readily two partners part at equilibrium.

The data set has as its target LAG-3:Fc (Mus musculus) (UniProt Q61790). The experiment in a line: BLI.
Sequence of UniProt Q61790 (Q61790 24-442): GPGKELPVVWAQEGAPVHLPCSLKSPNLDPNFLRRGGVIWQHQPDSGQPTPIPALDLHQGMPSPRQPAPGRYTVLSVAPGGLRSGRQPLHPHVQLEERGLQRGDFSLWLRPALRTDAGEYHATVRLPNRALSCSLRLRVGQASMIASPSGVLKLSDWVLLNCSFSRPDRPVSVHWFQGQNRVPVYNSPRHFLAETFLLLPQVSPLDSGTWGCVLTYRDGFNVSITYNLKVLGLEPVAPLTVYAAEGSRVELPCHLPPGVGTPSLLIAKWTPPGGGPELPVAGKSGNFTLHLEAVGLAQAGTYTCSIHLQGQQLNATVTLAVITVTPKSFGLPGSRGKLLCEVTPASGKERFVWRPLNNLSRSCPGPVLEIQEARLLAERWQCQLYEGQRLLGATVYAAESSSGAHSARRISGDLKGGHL

As for FGL1 (from UniProt Q71KU9), the Kd is 1.5 nM.
